Assay results as given in US11260115B1, “Peptides and combination of peptides for use in immunotherapy against CLL and other cancers” (immatics biotechnologies GmbH, priority 2015, dated 2022).

molecular target: HLA-A*02:01 (Homo sapiens, UniProt P04439, D140Y/D185E/D98H/E176V/E277Q/G131W/G231S/I119V/I121R/I166T/I218V/L300P/L318F/N151K/N90K/P208A/P217A/Q86G/Q94H/R138H/R169H/T345S); assay: MHC binding assay (UV-ligand exchange, β2m ELISA, peptide exchange yield); settings: binding to HLA-A*02:01
Method in brief: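 Peptide-HLA-A*02:01 complexes formed by UV-mediated exchange of a photocleavable ligand; exchange yield measured by streptavidin-capture ELISA detecting β2m with HRP anti-β2m, TMB read at 450 nm. Refolded monomer standards 15-500 ng/ml; samples diluted 100-fold.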

Row | Substance | Peptide Exchange (MHC class I binding score, peptide exchange yield)
1 | 308 (SLYDVSRMYV; listed as Homo sapiens) [compound 308] | “++++” (>75% = ++++)
2 | 309 (ILYGTQFVL; listed as Homo sapiens) [compound 309] | “+++” (>50 = +++)
3 | 310 (LLSTLHLLV; listed as Homo sapiens) [compound 310] | “+++” (>50 = +++)
4 | 311 (LLVDVEPKV; listed as Homo sapiens) [compound 311] | “+++” (>50 = +++)
5 | 312 (LLYNSTDPTL; listed as Homo sapiens) [compound 312] | “+++” (>50 = +++)
6 | 313 (LMADLEGLHL; listed as Homo sapiens) [compound 313] | “+++” (>50 = +++)
7 | 314 (LMKDCEAEV; listed as Homo sapiens) [compound 314] | “+++” (>50 = +++)
8 | 315 (LVYEAPETV; listed as Homo sapiens) [compound 315] | “+++” (>50 = +++)
9 | 316 (MLLEHGITL; listed as Homo sapiens) [compound 316] | “+++” (>50 = +++)
10 | 317 (NLLAHIWAL; listed as Homo sapiens) [compound 317] | “+++” (>50 = +++)
11 | 318 (NLQVTQPTV; listed as Homo sapiens) [compound 318] | “+++” (>50 = +++)
12 | 319 (QVIPQLQTV; listed as Homo sapiens) [compound 319] | “+++” (>50 = +++)
13 | 321 (RLLEFELAQL; listed as Homo sapiens) [compound 321] | “+++” (>50 = +++)
14 | 324 (SLYSALQQA; listed as Homo sapiens) [compound 324] | “+++” (>50 = +++)
15 | 325 (TLENGVPCV; listed as Homo sapiens) [compound 325] | “+++” (>50 = +++)
16 | 326 (VLAFLVHEL; listed as Homo sapiens) [compound 326] | “++++” (>75% = ++++)
17 | 327 (VLIKWFPEV; listed as Homo sapiens) [compound 327] | “++++” (>75% = ++++)
18 | 328 (VLLPQETAEIHL; listed as Homo sapiens) [compound 328] | “++++” (>75% = ++++)
19 | 329 (VLMDGSVKL; listed as Homo sapiens) [compound 329] | “++++” (>75% = ++++)
20 | 330 (VLMWEIYSL; listed as Homo sapiens) [compound 330] | “+++” (>50 = +++)
21 | 331 (VLWELAHLPTL; listed as Homo sapiens) [compound 331] | “+++” (>50 = +++)
22 | 333 (VTLEFPQLIRV; listed as Homo sapiens) [compound 333] | “+++” (>50 = +++)
23 | 334 (YLLEEKIASL; listed as Homo sapiens) [compound 334] | “+++” (>50 = +++)
24 | 335 (YLYQEQYFI; listed as Homo sapiens) [compound 335] | “+++” (>50 = +++)
25 | 336 (YMAVTTQEV; listed as Homo sapiens) [compound 336] | “++++” (>75% = ++++)
26 | 337 (YMYEKESEL; listed as Homo sapiens) [compound 337] | “++” (>20% = ++)
27 | 338 (FLDMTNWNL; listed as Homo sapiens) [compound 338] | “++++” (>75% = ++++)
28 | 339 (GLWGTVVNI; listed as Homo sapiens) [compound 339] | “+++” (>50 = +++)

Results, then the substance that gave them:

Row | Peptide Exchange (MHC class I binding score, peptide exchange yield) | Substance
29 | “++++” (>75% = ++++) | 340 (KLLEEICNL; listed as Homo sapiens) [compound 340]
30 | “+++” (>50 = +++) | 341 (LLAELPASVHA; listed as Homo sapiens) [compound 341]
31 | “+++” (>50 = +++) | 342 (SLITPLQAV; listed as Homo sapiens) [compound 342]
32 | “+++” (>50 = +++) | 344 (VLAFENPQV; listed as Homo sapiens) [compound 344]
33 | “+++” (>50 = +++) | 345 (YLIEPDVELQRI; listed as Homo sapiens) [compound 345]
34 | “+++” (>50 = +++) | 346 (VLVQVSPSL; listed as Homo sapiens) [compound 346]
35 | “+++” (>50 = +++) | 347 (YLGPVSPSL; listed as Homo sapiens) [compound 347]
36 | “+++” (>50 = +++) | 348 (ALAKPPVVSV; listed as Homo sapiens) [compound 348]
37 | “+++” (>50 = +++) | 349 (ALATHILSL; listed as Homo sapiens) [compound 349]
38 | “+++” (>50 = +++) | 350 (ALEDRVWEL; listed as Homo sapiens) [compound 350]
39 | “+++” (>50 = +++) | 351 (ALSEKLARL; listed as Homo sapiens) [compound 351]
40 | “+++” (>50 = +++) | 352 (ALVFELHYV; listed as Homo sapiens) [compound 352]
41 | “++” (>20% = ++) | 353 (ATPMPTPSV; listed as Homo sapiens) [compound 353]
42 | “+++” (>50 = +++) | 354 (FIMDDPAGNSYL; listed as Homo sapiens) [compound 354]
43 | “+++” (>50 = +++) | 355 (FIWPMLIHI; listed as Homo sapiens) [compound 355]
44 | “++” (>20% = ++) | 356 (FLHDHQAEL; listed as Homo sapiens) [compound 356]
45 | “+++” (>50 = +++) | 357 (FLIQEIKTL; listed as Homo sapiens) [compound 357]
46 | “+++” (>50 = +++) | 358 (FLTDYLNDL; listed as Homo sapiens) [compound 358]
47 | “+++” (>50 = +++) | 359 (FMQDPMEVFV; listed as Homo sapiens) [compound 359]
48 | “+++” (>50 = +++) | 360 (HLIDTNKIQL; listed as Homo sapiens) [compound 360]

Row | Peptide Exchange (MHC class I binding score, peptide exchange yield) | Substance
49 | “+++” (>50 = +++) | 361 (ILQEFESKL; listed as Homo sapiens) [compound 361]
50 | “+++” (>50 = +++) | 362 (ILTELGGFEV; listed as Homo sapiens) [compound 362]
51 | “+++” (>50 = +++) | 363 (ITTEVVNELYV; listed as Homo sapiens) [compound 363]
52 | “+++” (>50 = +++) | 364 (KMDWIFHTI; listed as Homo sapiens) [compound 364]
53 | “+++” (>50 = +++) | 365 (LISPLLLPV; listed as Homo sapiens) [compound 365]
54 | “+++” (>50 = +++) | 367 (NLWSLVAKV; listed as Homo sapiens) [compound 367]
55 | “+++” (>50 = +++) | 369 (RLLDLENSLLGL; listed as Homo sapiens) [compound 369]
56 | “+++” (>50 = +++) | 370 (SIFASPESV; listed as Homo sapiens) [compound 370]
57 | “+++” (>50 = +++) | 371 (SLADDSVLERL; listed as Homo sapiens) [compound 371]
58 | “+++” (>50 = +++) | 372 (SLFGPLPGPGPALV; listed as Homo sapiens) [compound 372]
59 | “++” (>20% = ++) | 373 (TLLADQGEIRV; listed as Homo sapiens) [compound 373]
60 | “+++” (>50 = +++) | 374 (VLSVITEEL; listed as Homo sapiens) [compound 374]
61 | “+++” (>50 = +++) | 375 (VLWFKPVEL; listed as Homo sapiens) [compound 375]
62 | “+++” (>50 = +++) | 376 (VLYNQRVEEI; listed as Homo sapiens) [compound 376]
63 | “+++” (>50 = +++) | 377 (VVDGTCVAV; listed as Homo sapiens) [compound 377]
64 | “+++” (>50 = +++) | 378 (YILGKFFAL; listed as Homo sapiens) [compound 378]
65 | “+++” (>50 = +++) | 379 (YLAELVTPIL; listed as Homo sapiens) [compound 379]
66 | “+++” (>50 = +++) | 381 (YLLEENKIKL; listed as Homo sapiens) [compound 381]
67 | “++++” (>75% = ++++) | 382 (YLLPLLQRL; listed as Homo sapiens) [compound 382]
